Laboratory results as given in patent publication US20220298257A1.

What was measured:
[1] = molecular target: full-length human CD22 fused with flag and Myc tags at the C-terminus, on HEK293 or K562 cells (human) (UniProt P20273); assay: cell-based or functional assay
[2] = molecular target: full-length human CD22 fused with flag and Myc tags at the C-terminus, on HEK293 or K562 cells (human) (UniProt P20273); assay: ELISA, IgG format; antigen format not described
[3] = molecular target: full-length human CD22 fused with flag and Myc tags at the C-terminus, on HEK293 or K562 cells (human) (UniProt P20273); assay: FACS on CD22-expressing cells (HEK293-CD22 by the table's head), anti-hFc Alexa 488

Chain of full-length human CD22 fused with flag and Myc tags at the C-terminus, on HEK293 or K562 cells (human) (P20273 20-847): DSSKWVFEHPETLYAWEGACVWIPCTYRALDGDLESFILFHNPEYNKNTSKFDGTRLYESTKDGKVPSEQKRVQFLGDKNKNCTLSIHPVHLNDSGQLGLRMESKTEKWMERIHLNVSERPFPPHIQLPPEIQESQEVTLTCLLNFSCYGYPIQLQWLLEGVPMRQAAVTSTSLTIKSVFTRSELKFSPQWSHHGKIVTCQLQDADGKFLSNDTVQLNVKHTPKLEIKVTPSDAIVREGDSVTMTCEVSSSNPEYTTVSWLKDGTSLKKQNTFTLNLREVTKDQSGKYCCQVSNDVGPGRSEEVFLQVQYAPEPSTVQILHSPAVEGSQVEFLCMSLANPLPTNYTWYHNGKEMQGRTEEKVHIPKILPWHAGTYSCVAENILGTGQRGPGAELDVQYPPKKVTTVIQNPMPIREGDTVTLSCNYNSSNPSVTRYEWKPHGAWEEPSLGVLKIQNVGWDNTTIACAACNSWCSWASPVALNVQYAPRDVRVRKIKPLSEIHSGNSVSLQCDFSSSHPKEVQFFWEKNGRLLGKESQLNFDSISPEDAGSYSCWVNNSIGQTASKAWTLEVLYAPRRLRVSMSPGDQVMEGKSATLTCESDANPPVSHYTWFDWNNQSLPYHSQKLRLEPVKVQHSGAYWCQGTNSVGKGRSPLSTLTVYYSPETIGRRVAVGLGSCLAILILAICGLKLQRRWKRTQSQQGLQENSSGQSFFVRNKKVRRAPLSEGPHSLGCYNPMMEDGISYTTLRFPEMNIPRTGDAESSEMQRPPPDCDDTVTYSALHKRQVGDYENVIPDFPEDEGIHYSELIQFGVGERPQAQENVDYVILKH

Question: BL22 (anti-CD22) (antibody) was tested. Which EC50 in ADCC assay (Promega ADCC Bioreporter, CD22/HEK293 target cells) [1] did it give?
Answer: The EC50 in ADCC assay (Promega ADCC Bioreporter, CD22/HEK293 target cells) was 3.31 nM.

Question: What about the T½ (Hour) of internalization, CD22/HEK293 cells, pHrodo secondary [1] of the same substance?
Answer: Its T½ (Hour) of internalization, CD22/HEK293 cells, pHrodo secondary is 3.95 Hour.

Question: And the EC50 [2]?
Answer: Its EC50 is 0.004 nM.

Question: What about the EC50 [3] of the same substance?
Answer: Its EC50 is 0.044 nM.
